{"source": "paper PMC5707411", "about": "(2017)", "key": {"[1]": {"target": "prefusion-stabilized RSV F strain A2 (DS-Cav1)", "experiment": "SPR"}, "[2]": {"target": "prefusion-stabilized RSV F strain A2 (DS-Cav1)", "experiment": "SPR", "remark": "listed apart in the source"}}}
{"binder": "5C4 Fab (Fab, V domains shown) VH: EVQLQQSGAELVKPGASVKLSCTASGFNIKDTFFHWVKQRPEQGLEWIGRIDPADGHTKYDPKFQGKATITADTSSNTAFLQLSSLTSVDTAVYYCATTITAVVPTPYNAMDYWGQGTSVTVSS VL: DIVLTQSPASLAVSLGQRTTISCRASESVDSFDNSFIHWYQQKPGQPPKLLIFLASSLESGVPARFSGSGSRTDFTLTIDPVEADDAATYYCQQSNEDPFTFGSGTKLEIK", "values": [{"measurement": "koff", "setting": "[1]", "value": 0.00454, "unit": "s⁻¹"}, {"measurement": "Kd", "setting": "[2]", "value": 25.7, "unit": "nM"}]}
